± gives the uncertainty stated by the source.
B1: KAT8 regulatory NSL complex subunit 2, residues 28 to 91; numbered along this chain, Q9H9L4 (parent)
chain: CAFTHRPCSHPRLEGQEFCIKHILEDKNAPFKQCSYISTKNGKRCPNAAPKPEKKDGVSFCAEH

Variants of: B1
Assay: abundance fitness (aPCA) (normalised: wild type 0, dead -1); higher = more abundant; growth selection in yeast, the domain comes from the species named
Conditions: Homo sapiens

CAFTHRPCSHPRLEGQEFCIKHILEDKAAPFKQCSYISTKNGKRCPNAAPKPEKKDGVSFCAEH and CAFTHRPCSHPRLEGQEFCIKHILEDKCAPFKQCSYISTKNGKRCPNAAPKPEKKDGVSFCAEH are within error of each other in abundance fitness: -0.118 ± 0.1 for the first, -0.142 ± 0.13 for the second.

CAFTHRPCSHPRLEGQEFCIKHILEDKDAPFKQCSYISTKNGKRCPNAAPKPEKKDGVSFCAEH and CAFTHRPCSHPRLEGQEFCIKHILEDKEAPFKQCSYISTKNGKRCPNAAPKPEKKDGVSFCAEH are within error of each other in abundance fitness: -0.252 ± 0.17 for the first, -0.07 ± 0.084 for the second.

CAFTHRPCSHPRLEGQEFCIKHILEDKFAPFKQCSYISTKNGKRCPNAAPKPEKKDGVSFCAEH and CAFTHRPCSHPRLEGQEFCIKHILEDKGAPFKQCSYISTKNGKRCPNAAPKPEKKDGVSFCAEH are within error of each other in abundance fitness: -0.083 ± 0.11 for the first, -0.11 ± 0.064 for the second.

CAFTHRPCSHPRLEGQEFCIKHILEDKHAPFKQCSYISTKNGKRCPNAAPKPEKKDGVSFCAEH and CAFTHRPCSHPRLEGQEFCIKHILEDKKAPFKQCSYISTKNGKRCPNAAPKPEKKDGVSFCAEH are within error of each other in abundance fitness: -0.028 ± 0.13 for the first, -0.1 ± 0.088 for the second.

CAFTHRPCSHPRLEGQEFCIKHILEDKLAPFKQCSYISTKNGKRCPNAAPKPEKKDGVSFCAEH and CAFTHRPCSHPRLEGQEFCIKHILEDKMAPFKQCSYISTKNGKRCPNAAPKPEKKDGVSFCAEH are within error of each other in abundance fitness: -0.093 ± 0.051 for the first, -0.107 ± 0.079 for the second.

First: CAFTHRPCSHPRLEGQEFCIKHILEDKPAPFKQCSYISTKNGKRCPNAAPKPEKKDGVSFCAEH
Second: CAFTHRPCSHPRLEGQEFCIKHILEDKQAPFKQCSYISTKNGKRCPNAAPKPEKKDGVSFCAEH
The abundance fitness of the first is lower: -0.215 ± 0.051 for the first, -0.069 ± 0.076 for the second.

CAFTHRPCSHPRLEGQEFCIKHILEDKRAPFKQCSYISTKNGKRCPNAAPKPEKKDGVSFCAEH and CAFTHRPCSHPRLEGQEFCIKHILEDKSAPFKQCSYISTKNGKRCPNAAPKPEKKDGVSFCAEH are within error of each other in abundance fitness: -0.049 ± 0.041 for the first, -0.006 ± 0.057 for the second.

CAFTHRPCSHPRLEGQEFCIKHILEDKTAPFKQCSYISTKNGKRCPNAAPKPEKKDGVSFCAEH and CAFTHRPCSHPRLEGQEFCIKHILEDKVAPFKQCSYISTKNGKRCPNAAPKPEKKDGVSFCAEH are within error of each other in abundance fitness: -0.031 ± 0.068 for the first, -0.121 ± 0.056 for the second.

First: CAFTHRPCSHPRLEGQEFCIKHILEDKWAPFKQCSYISTKNGKRCPNAAPKPEKKDGVSFCAEH
Second: CAFTHRPCSHPRLEGQEFCIKHILEDKNCPFKQCSYISTKNGKRCPNAAPKPEKKDGVSFCAEH
The abundance fitness of the first is lower: -0.312 ± 0.068 for the first, -0.151 ± 0.083 for the second.

CAFTHRPCSHPRLEGQEFCIKHILEDKNDPFKQCSYISTKNGKRCPNAAPKPEKKDGVSFCAEH and CAFTHRPCSHPRLEGQEFCIKHILEDKNEPFKQCSYISTKNGKRCPNAAPKPEKKDGVSFCAEH are within error of each other in abundance fitness: -0.225 ± 0.1 for the first, -0.308 ± 0.083 for the second.

CAFTHRPCSHPRLEGQEFCIKHILEDKNGPFKQCSYISTKNGKRCPNAAPKPEKKDGVSFCAEH and CAFTHRPCSHPRLEGQEFCIKHILEDKNHPFKQCSYISTKNGKRCPNAAPKPEKKDGVSFCAEH are within error of each other in abundance fitness: -0.128 ± 0.048 for the first, -0.208 ± 0.11 for the second.

CAFTHRPCSHPRLEGQEFCIKHILEDKNIPFKQCSYISTKNGKRCPNAAPKPEKKDGVSFCAEH and CAFTHRPCSHPRLEGQEFCIKHILEDKNKPFKQCSYISTKNGKRCPNAAPKPEKKDGVSFCAEH are within error of each other in abundance fitness: -0.358 ± 0.1 for the first, -0.186 ± 0.079 for the second.

CAFTHRPCSHPRLEGQEFCIKHILEDKNLPFKQCSYISTKNGKRCPNAAPKPEKKDGVSFCAEH and CAFTHRPCSHPRLEGQEFCIKHILEDKNMPFKQCSYISTKNGKRCPNAAPKPEKKDGVSFCAEH are within error of each other in abundance fitness: -0.217 ± 0.065 for the first, -0.204 ± 0.074 for the second.

CAFTHRPCSHPRLEGQEFCIKHILEDKNNPFKQCSYISTKNGKRCPNAAPKPEKKDGVSFCAEH and CAFTHRPCSHPRLEGQEFCIKHILEDKNPPFKQCSYISTKNGKRCPNAAPKPEKKDGVSFCAEH are within error of each other in abundance fitness: -0.22 ± 0.15 for the first, -0.225 ± 0.058 for the second.

CAFTHRPCSHPRLEGQEFCIKHILEDKNQPFKQCSYISTKNGKRCPNAAPKPEKKDGVSFCAEH and CAFTHRPCSHPRLEGQEFCIKHILEDKNRPFKQCSYISTKNGKRCPNAAPKPEKKDGVSFCAEH are within error of each other in abundance fitness: -0.278 ± 0.14 for the first, -0.167 ± 0.037 for the second.

CAFTHRPCSHPRLEGQEFCIKHILEDKNSPFKQCSYISTKNGKRCPNAAPKPEKKDGVSFCAEH and CAFTHRPCSHPRLEGQEFCIKHILEDKNTPFKQCSYISTKNGKRCPNAAPKPEKKDGVSFCAEH are within error of each other in abundance fitness: -0.048 ± 0.072 for the first, -0.133 ± 0.084 for the second.

Going from CAFTHRPCSHPRLEGQEFCIKHILEDKNVPFKQCSYISTKNGKRCPNAAPKPEKKDGVSFCAEH to CAFTHRPCSHPRLEGQEFCIKHILEDKNWPFKQCSYISTKNGKRCPNAAPKPEKKDGVSFCAEH, the abundance fitness falls from -0.196 ± 0.047 to -0.422 ± 0.068.

CAFTHRPCSHPRLEGQEFCIKHILEDKNYPFKQCSYISTKNGKRCPNAAPKPEKKDGVSFCAEH and CAFTHRPCSHPRLEGQEFCIKHILEDKNAAFKQCSYISTKNGKRCPNAAPKPEKKDGVSFCAEH are within error of each other in abundance fitness: -0.287 ± 0.1 for the first, -0.205 ± 0.06 for the second.

CAFTHRPCSHPRLEGQEFCIKHILEDKNACFKQCSYISTKNGKRCPNAAPKPEKKDGVSFCAEH and CAFTHRPCSHPRLEGQEFCIKHILEDKNADFKQCSYISTKNGKRCPNAAPKPEKKDGVSFCAEH are within error of each other in abundance fitness: -0.275 ± 0.065 for the first, -0.155 ± 0.075 for the second.

CAFTHRPCSHPRLEGQEFCIKHILEDKNAEFKQCSYISTKNGKRCPNAAPKPEKKDGVSFCAEH and CAFTHRPCSHPRLEGQEFCIKHILEDKNAFFKQCSYISTKNGKRCPNAAPKPEKKDGVSFCAEH are within error of each other in abundance fitness: -0.251 ± 0.093 for the first, -0.368 ± 0.067 for the second.

Compared with CAFTHRPCSHPRLEGQEFCIKHILEDKNAGFKQCSYISTKNGKRCPNAAPKPEKKDGVSFCAEH, CAFTHRPCSHPRLEGQEFCIKHILEDKNAHFKQCSYISTKNGKRCPNAAPKPEKKDGVSFCAEH is lower in abundance fitness: -0.074 ± 0.054 for the first, -0.253 ± 0.093 for the second.

Source: the Human Domainome abundance scans (Beltran et al. 2025)
